Source: PMC5183740

Molecular target: SA-M2e (streptavidin core fused to three consecutive copies of M2e of A/PARIS/2590/2009 (H1N1)) (Streptomyces avidinii | influenza A virus A/PARIS/2590/2009 (H1N1))
Test: SDS-PAGE of unheated samples

## SA-M2e (streptavidin core fused to three consecutive copies of M2e of A/PARIS/2590/2009 (H1N1))
  stoichiometry N: 4
